{"source": "patent US10227387", "about": "(CHILDREN S HOSPITAL MEDICAL CENTER, dated 2019)", "molecular_target": "LRP1 (full-length cDNA of LRP-1, Accession #NM_002332.2) overexpressed on cells (human, UniProt Q07954 20-4544)", "sequence (Q07954 20-4544)": "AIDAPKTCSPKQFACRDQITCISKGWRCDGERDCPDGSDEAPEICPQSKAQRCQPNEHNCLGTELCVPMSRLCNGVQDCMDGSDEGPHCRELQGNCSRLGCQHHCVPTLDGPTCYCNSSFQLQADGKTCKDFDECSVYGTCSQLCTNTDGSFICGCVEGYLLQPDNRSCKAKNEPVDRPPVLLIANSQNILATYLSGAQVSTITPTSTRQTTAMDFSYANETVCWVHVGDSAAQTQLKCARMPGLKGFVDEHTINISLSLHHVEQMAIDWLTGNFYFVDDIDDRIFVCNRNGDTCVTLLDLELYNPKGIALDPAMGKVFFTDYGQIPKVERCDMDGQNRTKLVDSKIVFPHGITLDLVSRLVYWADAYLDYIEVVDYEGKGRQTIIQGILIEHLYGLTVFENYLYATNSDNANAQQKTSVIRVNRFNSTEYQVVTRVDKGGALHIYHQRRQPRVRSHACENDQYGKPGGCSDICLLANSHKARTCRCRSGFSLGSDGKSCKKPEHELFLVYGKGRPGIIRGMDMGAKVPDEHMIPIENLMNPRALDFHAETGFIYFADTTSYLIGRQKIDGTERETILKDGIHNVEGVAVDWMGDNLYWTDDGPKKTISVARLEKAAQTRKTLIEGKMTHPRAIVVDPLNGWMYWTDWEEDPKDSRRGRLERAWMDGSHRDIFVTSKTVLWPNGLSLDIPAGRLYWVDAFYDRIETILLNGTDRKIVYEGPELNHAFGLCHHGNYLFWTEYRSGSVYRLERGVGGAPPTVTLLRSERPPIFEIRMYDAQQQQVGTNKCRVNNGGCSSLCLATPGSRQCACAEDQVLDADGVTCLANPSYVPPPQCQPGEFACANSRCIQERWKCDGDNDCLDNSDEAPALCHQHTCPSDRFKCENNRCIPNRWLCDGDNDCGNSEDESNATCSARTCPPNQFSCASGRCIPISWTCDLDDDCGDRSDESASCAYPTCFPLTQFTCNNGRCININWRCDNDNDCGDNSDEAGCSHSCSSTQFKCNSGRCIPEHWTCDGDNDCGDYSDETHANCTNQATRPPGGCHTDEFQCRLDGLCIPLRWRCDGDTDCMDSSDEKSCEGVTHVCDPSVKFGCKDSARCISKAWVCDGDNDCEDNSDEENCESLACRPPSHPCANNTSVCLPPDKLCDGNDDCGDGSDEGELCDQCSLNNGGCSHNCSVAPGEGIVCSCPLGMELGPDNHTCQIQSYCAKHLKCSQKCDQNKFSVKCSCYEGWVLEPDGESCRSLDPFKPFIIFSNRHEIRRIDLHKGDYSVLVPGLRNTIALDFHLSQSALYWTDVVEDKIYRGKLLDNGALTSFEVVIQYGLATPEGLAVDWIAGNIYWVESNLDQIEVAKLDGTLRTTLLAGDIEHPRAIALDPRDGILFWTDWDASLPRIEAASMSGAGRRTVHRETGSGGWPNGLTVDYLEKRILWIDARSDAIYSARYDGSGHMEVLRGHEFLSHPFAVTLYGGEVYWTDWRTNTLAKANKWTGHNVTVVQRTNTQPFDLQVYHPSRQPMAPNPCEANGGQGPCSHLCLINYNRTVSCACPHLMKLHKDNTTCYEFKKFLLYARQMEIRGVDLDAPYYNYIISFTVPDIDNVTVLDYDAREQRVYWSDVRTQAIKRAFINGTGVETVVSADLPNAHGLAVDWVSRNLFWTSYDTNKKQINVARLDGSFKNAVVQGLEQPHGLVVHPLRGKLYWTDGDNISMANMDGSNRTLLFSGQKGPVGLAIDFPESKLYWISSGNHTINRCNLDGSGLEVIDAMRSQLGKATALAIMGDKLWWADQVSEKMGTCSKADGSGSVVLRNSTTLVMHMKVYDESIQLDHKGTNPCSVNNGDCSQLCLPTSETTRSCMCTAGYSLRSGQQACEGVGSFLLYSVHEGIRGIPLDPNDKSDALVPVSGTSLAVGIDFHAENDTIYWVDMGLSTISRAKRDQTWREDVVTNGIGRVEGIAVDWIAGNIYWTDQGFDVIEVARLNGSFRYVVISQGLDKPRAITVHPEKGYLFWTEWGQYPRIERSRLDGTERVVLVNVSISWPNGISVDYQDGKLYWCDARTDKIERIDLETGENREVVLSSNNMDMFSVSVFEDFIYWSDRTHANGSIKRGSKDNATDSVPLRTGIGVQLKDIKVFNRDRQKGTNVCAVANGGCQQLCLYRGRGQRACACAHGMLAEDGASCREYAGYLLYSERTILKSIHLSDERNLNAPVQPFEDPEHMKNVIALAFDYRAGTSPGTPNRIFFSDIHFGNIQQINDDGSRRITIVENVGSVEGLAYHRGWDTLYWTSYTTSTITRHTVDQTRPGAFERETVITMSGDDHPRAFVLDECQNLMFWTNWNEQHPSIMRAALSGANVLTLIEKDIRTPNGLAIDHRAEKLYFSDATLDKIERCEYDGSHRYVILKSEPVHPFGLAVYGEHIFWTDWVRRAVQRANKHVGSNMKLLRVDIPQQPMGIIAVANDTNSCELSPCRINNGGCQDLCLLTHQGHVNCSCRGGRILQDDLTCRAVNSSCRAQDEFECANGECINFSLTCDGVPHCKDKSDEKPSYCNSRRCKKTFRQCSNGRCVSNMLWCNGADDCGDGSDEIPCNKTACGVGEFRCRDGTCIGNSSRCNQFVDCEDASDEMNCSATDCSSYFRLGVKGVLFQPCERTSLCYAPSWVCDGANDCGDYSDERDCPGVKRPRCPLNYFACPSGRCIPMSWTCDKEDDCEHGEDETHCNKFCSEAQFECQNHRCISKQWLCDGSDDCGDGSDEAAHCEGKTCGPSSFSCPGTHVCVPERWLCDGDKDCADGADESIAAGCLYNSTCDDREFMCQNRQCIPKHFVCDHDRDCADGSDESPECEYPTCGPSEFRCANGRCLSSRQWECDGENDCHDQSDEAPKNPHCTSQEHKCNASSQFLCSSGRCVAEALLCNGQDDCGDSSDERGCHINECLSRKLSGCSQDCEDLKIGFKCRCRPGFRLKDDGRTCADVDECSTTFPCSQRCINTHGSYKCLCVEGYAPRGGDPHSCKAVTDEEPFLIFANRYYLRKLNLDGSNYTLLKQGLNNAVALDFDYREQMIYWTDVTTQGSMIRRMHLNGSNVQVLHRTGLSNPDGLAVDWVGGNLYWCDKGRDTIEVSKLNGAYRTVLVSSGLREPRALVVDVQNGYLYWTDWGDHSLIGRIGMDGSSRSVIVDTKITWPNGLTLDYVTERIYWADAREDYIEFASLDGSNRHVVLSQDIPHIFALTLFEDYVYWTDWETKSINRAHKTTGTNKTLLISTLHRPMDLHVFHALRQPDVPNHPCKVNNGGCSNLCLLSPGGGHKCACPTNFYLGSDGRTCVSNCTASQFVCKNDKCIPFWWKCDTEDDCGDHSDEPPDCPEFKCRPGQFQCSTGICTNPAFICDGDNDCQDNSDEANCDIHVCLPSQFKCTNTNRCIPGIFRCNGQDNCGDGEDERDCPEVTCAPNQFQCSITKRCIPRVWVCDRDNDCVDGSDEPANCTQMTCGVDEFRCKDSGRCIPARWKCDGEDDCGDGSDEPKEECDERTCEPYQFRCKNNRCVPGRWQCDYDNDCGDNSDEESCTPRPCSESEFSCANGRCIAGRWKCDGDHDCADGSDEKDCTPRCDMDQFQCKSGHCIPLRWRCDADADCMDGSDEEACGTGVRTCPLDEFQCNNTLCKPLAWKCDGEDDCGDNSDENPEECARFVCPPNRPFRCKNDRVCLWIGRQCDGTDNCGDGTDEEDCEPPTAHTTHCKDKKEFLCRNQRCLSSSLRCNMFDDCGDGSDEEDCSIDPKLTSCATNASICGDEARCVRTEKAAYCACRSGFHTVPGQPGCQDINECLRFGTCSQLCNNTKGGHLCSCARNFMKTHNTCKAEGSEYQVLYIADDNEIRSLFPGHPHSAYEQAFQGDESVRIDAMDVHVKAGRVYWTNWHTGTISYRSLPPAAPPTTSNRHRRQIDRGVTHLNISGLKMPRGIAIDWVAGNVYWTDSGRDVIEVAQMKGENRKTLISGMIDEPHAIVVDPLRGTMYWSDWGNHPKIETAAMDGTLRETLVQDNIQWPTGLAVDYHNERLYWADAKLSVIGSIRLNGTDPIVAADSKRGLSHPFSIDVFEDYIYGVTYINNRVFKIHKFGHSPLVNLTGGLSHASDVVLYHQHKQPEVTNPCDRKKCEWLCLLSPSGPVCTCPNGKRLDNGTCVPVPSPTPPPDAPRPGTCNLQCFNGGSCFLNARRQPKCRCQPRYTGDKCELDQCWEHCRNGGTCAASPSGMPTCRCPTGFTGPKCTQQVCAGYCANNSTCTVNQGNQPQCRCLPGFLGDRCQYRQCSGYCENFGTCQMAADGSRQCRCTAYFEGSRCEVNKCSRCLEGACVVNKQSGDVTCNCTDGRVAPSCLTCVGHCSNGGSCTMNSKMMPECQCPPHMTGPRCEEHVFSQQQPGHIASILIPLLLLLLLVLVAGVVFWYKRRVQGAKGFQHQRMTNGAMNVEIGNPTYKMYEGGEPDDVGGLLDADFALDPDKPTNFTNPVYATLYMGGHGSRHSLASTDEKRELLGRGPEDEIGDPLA", "assay": "cell-based or functional assay", "data": [{"binder": "IDUAe1 (enzyme) APHLVHVDAARALWPLRRFWRSTGFCPPLPHSQADQYVLSWDQQLNLAYVGAVPHRGIKQVRTHWLLELVTTRGSTGRGLSYNFTHLDGYLDLLRENQLLPGFELMGSASGHFTDFEDKQQVFEWKDLVSSLARRYIGRYGLAHVSKWNFETWNEPDHHDFDNVSMTMQGFLNYYDACSEGLRAASPALRLGGPGDSFHTPPRSPLSWGLLRHCHDGTNFFTGEAGVRLDYISLHRKGARSSISILEQEKVVAQQIRQLFPKFADTPIYNDEADPLVGWSLPQPWRADVTYAAMVVKVIAQHQNLLLANTTSAFPYALLSNDNAFLSYHPHPFAQRTLTARFQVNNTRPPHVQLLRKPVLTAMGLLALLDEEQLWAEVSQAGTVLDSNHTVGVLASAHRPQGPADAWRAAVLIYASDDTRAHPNRSVAVTLRLRGVPPGPGLVYVTRYLDNGLCSPDGEWRRLGRPVFPTAEQFRRMRAAEDPVAAAPRPLPAGGRLTLRPALRLPSLLLVHVCARPEKPPGQVTRLRALPLTQGQLVLVWSDEHVGSKCLWTYEIQFSQDGKAYTPVSRKPSTFNLFVFSPDTGAVSGSYRVRALDYWARPGPFSDPVPYLEVPVPRGPPSPGNPILKKATAYILLRKLRKRLLLRKLRKRLL", "values": [{"measurement": "intracellular enzyme level in pause-chase uptake assay, CHO^LDLRneg-LRP1 cells, against unmodified IDUA", "value": 2, "unit": "fold"}]}]}
